Article PMC10805794

How the values were obtained:
[1] = target: Beta spike antigen (Sanofi SARS-CoV-2 recombinant prefusion spike trimer, B.1.351 variant) (SARS-CoV-2 (B.1.351, Beta) | bacteriophage T4) (UniProt P0DTC2); assay: SEC; Superose-6 column, analytical HPLC; antigens at 3 mg/mL stored at 4 °C for several weeks (cold stored) and an aliquot incubated at 37 °C for one day
[2] = target: ancestral spike antigen (Sanofi SARS-CoV-2 recombinant prefusion spike trimer, Wuhan Hu-1) (SARS-CoV-2 (Wuhan Hu-1) | bacteriophage T4) (UniProt P0DTC2); assay: as above

Row | Substance | stoichiometry N [1] | stoichiometry N [2]
1 | Beta spike antigen (Sanofi SARS-CoV-2 recombinant prefusion spike trimer, B.1.351 variant) (from UniProt P0DTC2 14-1213) (complex) | 3 | –
2 | ancestral spike antigen (Sanofi SARS-CoV-2 recombinant prefusion spike trimer, Wuhan Hu-1) (from UniProt P0DTC2 14-1213) (complex) | – | 3
